Test [1] addresses soluble human C3b (human) (UniProt P01024).
Test [2] deals with T1, human C4b (human) (UniProt P0C0L5).
T1 sequence: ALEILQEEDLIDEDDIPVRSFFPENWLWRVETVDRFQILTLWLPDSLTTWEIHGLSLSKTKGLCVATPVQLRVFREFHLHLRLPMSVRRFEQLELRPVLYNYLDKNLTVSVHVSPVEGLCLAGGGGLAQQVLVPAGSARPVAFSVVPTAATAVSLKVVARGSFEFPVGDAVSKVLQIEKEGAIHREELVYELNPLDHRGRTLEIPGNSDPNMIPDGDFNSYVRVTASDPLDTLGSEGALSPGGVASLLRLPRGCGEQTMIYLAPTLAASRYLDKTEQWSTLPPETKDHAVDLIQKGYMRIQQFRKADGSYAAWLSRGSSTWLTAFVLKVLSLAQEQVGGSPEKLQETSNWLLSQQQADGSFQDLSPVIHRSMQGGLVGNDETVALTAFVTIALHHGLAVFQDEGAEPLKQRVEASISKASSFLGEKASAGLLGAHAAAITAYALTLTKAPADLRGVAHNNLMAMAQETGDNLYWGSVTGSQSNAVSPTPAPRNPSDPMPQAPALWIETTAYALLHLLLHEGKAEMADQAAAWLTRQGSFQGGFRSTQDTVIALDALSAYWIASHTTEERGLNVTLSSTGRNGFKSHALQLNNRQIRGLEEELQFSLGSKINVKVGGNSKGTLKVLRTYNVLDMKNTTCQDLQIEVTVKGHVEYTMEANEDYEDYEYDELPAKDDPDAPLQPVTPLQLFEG

WT; GGSSGG (SEQ ID NO: 6); CCP_1-4 (enzyme), sequence (chain): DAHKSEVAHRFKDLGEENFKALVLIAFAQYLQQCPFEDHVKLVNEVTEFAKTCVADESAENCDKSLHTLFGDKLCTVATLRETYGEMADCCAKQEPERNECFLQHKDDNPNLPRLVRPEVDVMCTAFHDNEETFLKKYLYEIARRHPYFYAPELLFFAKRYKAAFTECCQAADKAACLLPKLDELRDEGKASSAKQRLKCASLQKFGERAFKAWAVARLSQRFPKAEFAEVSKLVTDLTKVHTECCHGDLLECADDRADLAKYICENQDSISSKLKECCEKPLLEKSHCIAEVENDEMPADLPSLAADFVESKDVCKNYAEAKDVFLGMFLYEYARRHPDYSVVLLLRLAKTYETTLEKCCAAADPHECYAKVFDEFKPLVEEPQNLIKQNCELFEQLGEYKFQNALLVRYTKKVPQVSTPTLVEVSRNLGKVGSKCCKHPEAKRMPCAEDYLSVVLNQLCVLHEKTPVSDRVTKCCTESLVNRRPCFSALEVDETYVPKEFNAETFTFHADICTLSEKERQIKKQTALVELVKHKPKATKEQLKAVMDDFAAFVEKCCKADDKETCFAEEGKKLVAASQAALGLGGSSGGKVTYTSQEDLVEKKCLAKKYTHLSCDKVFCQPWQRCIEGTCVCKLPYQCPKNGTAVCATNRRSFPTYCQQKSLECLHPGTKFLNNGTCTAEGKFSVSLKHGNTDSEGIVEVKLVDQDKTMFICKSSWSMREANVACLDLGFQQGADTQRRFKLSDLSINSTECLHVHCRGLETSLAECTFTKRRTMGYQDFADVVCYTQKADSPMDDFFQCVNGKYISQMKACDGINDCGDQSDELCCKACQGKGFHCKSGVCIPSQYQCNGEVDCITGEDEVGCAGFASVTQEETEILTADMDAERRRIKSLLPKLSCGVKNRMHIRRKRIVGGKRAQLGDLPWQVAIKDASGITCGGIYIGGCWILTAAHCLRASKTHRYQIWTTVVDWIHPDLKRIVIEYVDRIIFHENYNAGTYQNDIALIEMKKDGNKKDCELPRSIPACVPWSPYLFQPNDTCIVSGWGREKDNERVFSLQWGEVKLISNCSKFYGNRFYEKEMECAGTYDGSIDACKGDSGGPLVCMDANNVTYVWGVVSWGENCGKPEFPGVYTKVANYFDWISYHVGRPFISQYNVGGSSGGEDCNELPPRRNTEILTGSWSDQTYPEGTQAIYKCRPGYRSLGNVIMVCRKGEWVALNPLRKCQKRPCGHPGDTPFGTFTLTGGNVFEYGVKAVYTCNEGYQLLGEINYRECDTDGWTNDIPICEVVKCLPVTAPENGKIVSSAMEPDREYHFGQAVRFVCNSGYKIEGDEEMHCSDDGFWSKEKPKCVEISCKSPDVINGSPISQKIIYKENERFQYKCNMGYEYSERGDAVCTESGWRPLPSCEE

With “CFI-HSA variant Y408L; E457G; P535G; WT; GGSSGG (SEQ ID NO: 6); CR1(ccp15-17) (from UniProt P17927) (enzyme)”, the iC3b Screen Ref Fold (fold of CFI-HSA wild type) in test [1] turned out to be 0.23. Besides, the C4b Screen Ref Fold (fold of CFI-HSA wild type) in test [2] turned out to be 1.99.

Turning to “CFI-HSA variant Y408L; E457G; WT; GGSSGG (SEQ ID NO: 6); CR1(ccp15-17) (from UniProt P17927) (enzyme)”, the iC3b Screen Ref Fold (fold of CFI-HSA wild type) in test [1] was determined as 0.12. The C4b Screen Ref Fold (fold of CFI-HSA wild type) in test [2] is 3.18.

Consider CFI-HSA variant Y408L; K534Q (enzyme), for which the iC3b Screen Ref Fold (fold of CFI-HSA wild type) in test [1] is 0.97. Further, in test [2], the C4b Screen Ref Fold (fold of CFI-HSA wild type) came out at 1.26.

For CFI-HSA variant Y408L; N422K (enzyme), the iC3b Screen Ref Fold (fold of CFI-HSA wild type) in test [1] stood at 1.27. The C4b Screen Ref Fold (fold of CFI-HSA wild type) in test [2] was 0.6.

As to “CFI-HSA variant Y408L; N531G; E416A (enzyme)”, the iC3b Screen Ref Fold (fold of CFI-HSA wild type) in test [1] amounted to 2.07. Also, the C4b Screen Ref Fold (fold of CFI-HSA wild type) in test [2] turned out to be 2.54.

With “CFI-HSA variant Y408L; N531G; E457G; E461Q; R462K; F464Y; S507A (enzyme)”, in test [1], the iC3b Screen Ref Fold (fold vs CFI-HSA wild type) is 0. In test [2], the C4b Screen Ref Fold (fold vs CFI-HSA wild type) turned out to be 0.01.

On to “CFI-HSA variant Y408L; N531G; P535G (enzyme)”, for which the iC3b Screen Ref Fold (fold of CFI-HSA wild type) in test [1] amounted to 0.97. Also, the C4b Screen Ref Fold (fold of CFI-HSA wild type) in test [2] came out at 0.89.

In the case of “CFI-HSA variant Y408L; N531G; P535G; K534Q (enzyme)”, in test [1], the iC3b Screen Ref Fold (fold of CFI-HSA wild type) came out at 1.2. Moreover, the C4b Screen Ref Fold (fold of CFI-HSA wild type) in test [2] was 1.47.

With “CFI-HSA variant Y408L; N531G; P535G; P558S (enzyme)”, in test [1], the iC3b Screen Ref Fold (fold of CFI-HSA wild type) worked out at 1.28. Besides, the C4b Screen Ref Fold (fold of CFI-HSA wild type) in test [2] was 1.02.

Regarding “CFI-HSA variant Y408L; N531G; P535G; WT; GGSSGG (SEQ ID NO: 6); CR1(ccp15-17) (from UniProt P17927) (enzyme)”, the iC3b Screen Ref Fold (fold of CFI-HSA wild type) in test [1] amounted to 0.05. Also, the C4b Screen Ref Fold (fold of CFI-HSA wild type) in test [2] came to 3.6.

Take “CFI-HSA variant Y408L; N531G; WT; GGSSGG (SEQ ID NO: 6); CR1(ccp15-17) (from UniProt P17927) (enzyme)”: the iC3b Screen Ref Fold (fold of CFI-HSA wild type) in test [1] is 0.22. For the same substance, the C4b Screen Ref Fold (fold of CFI-HSA wild type) in test [2] was 4.17.

In the case of “CFI-HSA variant Y408L; P535G; K534Q (enzyme)”, the iC3b Screen Ref Fold (fold of CFI-HSA wild type) in test [1] stood at 0.26. Besides, the C4b Screen Ref Fold (fold of CFI-HSA wild type) in test [2] was 0.33.

Regarding “CFI-HSA variant Y408L; P535G; N422K (enzyme)”, the iC3b Screen Ref Fold (fold of CFI-HSA wild type) in test [1] worked out at 1.03. The C4b Screen Ref Fold (fold of CFI-HSA wild type) in test [2] is 0.17.

Consider “CFI-HSA variant Y408L; P535G; P558S (enzyme)”, for which the iC3b Screen Ref Fold (fold of CFI-HSA wild type) in test [1] turned out to be 0.24. Further, the C4b Screen Ref Fold (fold of CFI-HSA wild type) in test [2] was found to be 0.04.

Turning to “CFI-HSA variant Y408L; P535G; WT; GGSSGG (SEQ ID NO: 6); CR1(ccp15-17) (from UniProt P17927) (enzyme)”, in test [1], the iC3b Screen Ref Fold (fold of CFI-HSA wild type) was 0.03. In addition, the C4b Screen Ref Fold (fold of CFI-HSA wild type) in test [2] was determined as 3.01.

Turning to CFI-HSA variant Y408L; P558S (enzyme), the iC3b Screen Ref Fold (fold of CFI-HSA wild type) in test [1] turned out to be 0.86. The C4b Screen Ref Fold (fold of CFI-HSA wild type) in test [2] turned out to be 0.31.

For the substance “CFI-HSA variant Y408L; WT; GGSSGG (SEQ ID NO: 6); CR1(ccp15-17) (from UniProt P17927) (enzyme)”, in test [1], the iC3b Screen Ref Fold (fold of CFI-HSA wild type) stood at 0.03. Moreover, the C4b Screen Ref Fold (fold of CFI-HSA wild type) in test [2] stood at 3.64.

Turning to CFI-HSA variant Y408R (enzyme), the iC3b Screen Ref Fold (fold vs CFI-HSA wild type) in test [1] was determined as 0.24. Moreover, in test [2], the C4b Screen Ref Fold (fold vs CFI-HSA wild type) stood at 0.07.

For CFI-HSA variant Y553F (enzyme), the iC3b Screen Ref Fold (fold of CFI-HSA wild type) in test [1] came to 0.67. In test [2], the C4b Screen Ref Fold (fold of CFI-HSA wild type) was 1.37.

CFI-HSA variant Y553F; F559L (enzyme): the iC3b Screen Ref Fold (fold of CFI-HSA wild type) in test [1] is 0.35. For the same substance, the C4b Screen Ref Fold (fold of CFI-HSA wild type) in test [2] was 0.77.

As to CFI-HSA variant Y553F; P558S (enzyme), in test [1], the iC3b Screen Ref Fold (fold of CFI-HSA wild type) came out at 0.84. The C4b Screen Ref Fold (fold of CFI-HSA wild type) in test [2] came out at 1.26.

As to “CFI-HSA variant Y553F; P558S; F559L (enzyme)”, the iC3b Screen Ref Fold (fold of CFI-HSA wild type) in test [1] was determined as 0.5. For the same substance, the C4b Screen Ref Fold (fold of CFI-HSA wild type) in test [2] stood at 0.6.

For the substance CFI-HSA variant Y553H; F559L (enzyme), in test [1], the iC3b Screen Ref Fold (fold of CFI-HSA wild type) came out at 0.32. Besides, the C4b Screen Ref Fold (fold of CFI-HSA wild type) in test [2] worked out at 1.16.

“CFI-HSA variant Y553H; F559L; P558S (enzyme)”: the iC3b Screen Ref Fold (fold of CFI-HSA wild type) in test [1] amounted to 0.22. Besides, the C4b Screen Ref Fold (fold of CFI-HSA wild type) in test [2] came to 0.69.

Turning to “CFI-HSA variant Y553H; F559L; V565I (enzyme)”, the iC3b Screen Ref Fold (fold of CFI-HSA wild type) in test [1] is 0.76. Also, in test [2], the C4b Screen Ref Fold (fold of CFI-HSA wild type) turned out to be 1.23.

Take “CFI-HSA variant Y553H; F559L; V565I; P558S (enzyme)”: in test [1], the iC3b Screen Ref Fold (fold of CFI-HSA wild type) is 0.59. For the same substance, the C4b Screen Ref Fold (fold of CFI-HSA wild type) in test [2] amounted to 1.58.

As to CFI-HSA variant Y553H; V565I (enzyme), the iC3b Screen Ref Fold (fold of CFI-HSA wild type) in test [1] was 1.32. Moreover, the C4b Screen Ref Fold (fold of CFI-HSA wild type) in test [2] was determined as 1.97.

Regarding “CFI-HSA variant Y553H; V565I; P558S (enzyme)”, the iC3b Screen Ref Fold (fold of CFI-HSA wild type) in test [1] worked out at 0.46. Besides, in test [2], the C4b Screen Ref Fold (fold of CFI-HSA wild type) stood at 1.75.

In the case of CFI-HSA variant Δ(K1-P305) (enzyme), the iC3b Screen Ref Fold (fold vs CFI-HSA wild type) in test [1] was determined as 0.04. The C4b Screen Ref Fold (fold vs CFI-HSA wild type) in test [2] came out at 0.06.

Consider “CFI-HSA variant Δ(K1-P305); 1317D-R318D-R319D-K320D-R321K (enzyme)”, for which, in test [1], the iC3b Screen Ref Fold (fold vs CFI-HSA wild type) was determined as 0.03. The C4b Screen Ref Fold (fold vs CFI-HSA wild type) in test [2] is 0.06.

For “CFI-HSA variant Δ(K1-P305); N531G (enzyme)”, the iC3b Screen Ref Fold (fold vs CFI-HSA wild type) in test [1] stood at 0.03. Besides, the C4b Screen Ref Fold (fold vs CFI-HSA wild type) in test [2] was 0.02.

As to “CFI-HSA variant Δ(K1-P305); N531G; P535A (enzyme)”, the iC3b Screen Ref Fold (fold vs CFI-HSA wild type) in test [1] is 0.05. For the same substance, the C4b Screen Ref Fold (fold vs CFI-HSA wild type) in test [2] worked out at 0.15.

In the case of “CFI-HSA variant Δ(K1-P305); Y408L; N531G (enzyme)”, the iC3b Screen Ref Fold (fold vs CFI-HSA wild type) in test [1] was 0.05. In addition, the C4b Screen Ref Fold (fold vs CFI-HSA wild type) in test [2] amounted to 0.14.

Take “CFI-HSA variant Δ(K1-P305); Y408L; N531G; E457G; E461Q; R462K; F464Y (enzyme)”: in test [1], the iC3b Screen Ref Fold (fold vs CFI-HSA wild type) came out at 0.03. Moreover, in test [2], the C4b Screen Ref Fold (fold vs CFI-HSA wild type) worked out at 0.01.

For the substance CFI-HSA variant Δ(S308) (enzyme), in test [1], the iC3b Screen Ref Fold (fold relative to CFI-HSA wild type) is -0.01. For the same substance, the C4b Screen Ref Fold (fold relative to CFI-HSA wild type) in test [2] was 0.21.

Consider CFI-HSA variant Δ(V565) (enzyme), for which the iC3b Screen Ref Fold (fold relative to CFI-HSA wild type) in test [1] came to 0.54. Besides, in test [2], the C4b Screen Ref Fold (fold relative to CFI-HSA wild type) stood at 1.57.

For the substance “WT; GGSSGG (SEQ ID NO: 6); CCP_1-4 (enzyme)”, the iC3b Screen Ref Fold (fold vs CFI-HSA wild type) in test [1] came to 0.02. In addition, the C4b Screen Ref Fold (fold vs CFI-HSA wild type) in test [2] turned out to be 0.21.

As for “WT; GGSSGG (SEQ ID NO: 6); CCP_1-4; GGSS(6) + G; compstatin (enzyme)”, in test [1], the iC3b Screen Ref Fold (fold vs CFI-HSA wild type) is 0.11. In addition, the C4b Screen Ref Fold (fold vs CFI-HSA wild type) in test [2] is 0.25.
